Experiments:
hcGAS-FL (D191R) = hcGAS-FL (D191R) (Homo sapiens, UniProt Q8N884 1-522, D191R); test: fluorescence polarization; D191R did not interfere with dsDNA binding; XQ2 inhibition markedly reduced; FP: 20 mM HEPES pH 7.5, 125 mM KCl, 10 mM MgCl2; 300 nM cGAS, 40 nM FAM-ISD; temperature not stated. MST conditions not given in the material; settings: protein: recombinant; tags: 6xHis-SUMO removed by ULP1; label: 5'-FAM on sense strand; blunt
hcGAS-FL = hcGAS-FL (Homo sapiens, UniProt Q8N884 1-522); test: fluorescence polarization; 300 nM protein, 40 nM DNA; XQ2 competes with IC50 19.2 ± 6.7 uM (inhibitor value, not DNA affinity); FP: 20 mM HEPES pH 7.5, 125 mM KCl, 10 mM MgCl2; 300 nM cGAS, 40 nM FAM-ISD; temperature not stated. MST conditions not given in the material; settings: protein: recombinant; tags: 6xHis-SUMO removed by ULP1; label: 5'-FAM on sense strand; blunt
Sequence of hcGAS-FL (Q8N884 whole entry): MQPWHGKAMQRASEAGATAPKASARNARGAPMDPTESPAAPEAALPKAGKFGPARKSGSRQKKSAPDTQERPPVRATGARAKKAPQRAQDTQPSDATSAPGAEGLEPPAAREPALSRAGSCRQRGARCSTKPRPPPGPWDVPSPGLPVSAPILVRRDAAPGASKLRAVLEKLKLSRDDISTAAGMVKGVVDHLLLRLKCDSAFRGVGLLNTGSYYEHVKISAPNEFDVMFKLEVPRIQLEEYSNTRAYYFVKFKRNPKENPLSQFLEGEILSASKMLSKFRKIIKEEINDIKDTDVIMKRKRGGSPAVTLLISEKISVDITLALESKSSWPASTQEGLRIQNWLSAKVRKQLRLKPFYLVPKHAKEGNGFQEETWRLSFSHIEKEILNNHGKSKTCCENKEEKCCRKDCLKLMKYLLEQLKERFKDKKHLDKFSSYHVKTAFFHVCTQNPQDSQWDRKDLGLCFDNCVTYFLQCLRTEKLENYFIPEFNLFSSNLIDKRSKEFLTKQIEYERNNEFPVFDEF

Sequence of hcGAS-FL (D191R) (Q8N884 whole entry D191R): as the sequence (Q8N884 whole entry) above, with D191R counted along it

B1: 45-bp FAM-ISD (dsDNA)
DNA 1: TACAGATCTACTAGTGATCTATGACTGATCTGTACATGATCTACA
DNA 2: TGTAGATCATGTACAGATCAGTCATAGATCACTAGTAGATCTGTA
binding result (hcGAS-FL (D191R)): binds
binding result (hcGAS-FL): binds

Reference: article PMC10545747, “Development of cyclopeptide inhibitors of cGAS targeting protein-DNA interaction and phase separation”
